US6358897B1, “Alkyl trypsin compositions and methods of use in contact lens cleaning and disinfecting systems” (Alcon Laboratories, Inc., priority 1996, dated 2002)

Experiments:
[1] = tested on: lysozyme deposits; assay: Cleaning efficacy on lysozyme-deposited contact lenses, fluorescence method; settings: for Lysozyme, Total: hydrolysate plus ACN/TFA extract; for Lysozyme, ACN/TFA Extract: lens extract after overnight cleaning at room temperature; for % Cleaning Efficacy: overnight soak at room temperature, no rubbing; for Lysozyme, Hydrolysate: soaking solution after overnight cleaning at room temperature
Protocol: The following example illustrates the cleaning efficacy of a multi-purpose composition (Example 6) of the present invention. The cleaning efficacy was determined using the following protocol. 1. Physiological/Thermal Combination Model Each lens was first soaked in a 5 ml lysozyme solution (native or C14-labeled, 1.0 mg/ml in 0.05M phosphate buffer containing 0.9% sodium chloride, pH 7.4) at 37° C. for 24 hours, then removed to a saline solution (2 ml) and heated at 90° C. for 15 minutes. 2. Cleaning and Assessment of Lysozyme Deposits Each deposited lens was placed in a 5 ml of a test solution and agitated in a rotary shaker at room temperature overnight (usually >12 hours). The compositions tested were: 1) the Example 6 composition (Me-trypsin), 2) 1 drop of Example 3B (except Me-trypsin was replaced by trypsin) in 5 mL of the Example 2B composition and 3) 1 drop of Supraclens® Daily Protein Remover (pancreatin) in 5 mL of the Example 2B composition. After rinsing the lens by dipping three times in three consecutive 40 ml saline solution, the lens was subjected to extraction with 5 ml ACN/TFA solution (acetonitrile/trifluoroacetic acid/water: 500/1/500 v/v) for at least 2 hours. No mechanical rubbing was applied to the cleaning regimen. Both the extract and the soaking solution were then assessed for lysozyme by the protein intrinsic fluorescence method using a fluorescence spectrophotometer (excitation wavelength is 280 nm, emission wavelength is 354 nm), or by a scintillation counter for the C14-lysozyme. The quantification of lysozyme was based on a lysozyme standard curve established using the same vehicle and instrumental setting used for the lens extract and lens soaking solution. The results are show in Tables 9-10.

[2] = tested on: azocasein; assay: Stability of Me-trypsin, trypsin and pancreatin in a disinfecting composition (Example 5C), azocasein method; assay type: physicochemical; settings: for % Activity Remaining: Example 5C composition, 50 μg/ml (pancreatin 375 μg/ml)
Protocol: Azocasein Method The following solutions are used in this assay: 1) Buffer solution: 0.05 M sodium phosphate buffer containing 0.9% sodium chloride, pH 7.6. 2) Substrate solution: 2 mg/ml azocasein in the buffer solution mentioned above. The assay is initiated by mixing 1 ml of an appropriately diluted (such that the enzyme activity is in the range of standard curve) enzyme composition in phosphate buffer with 2 ml of azocasein substrate solution (2 mg/ml). After incubation at 37° C. for 20 minutes, the mixture is removed from the incubator and 1 ml of trichloroacetic acid to (14% w/v) is added to stop the enzyme reaction. The mixture is vortexed well and allowed to stand at room temperature for 20 minutes. After centrifuging at 2500 rpm (with a Beckman GS-6R Centrifuge) for 15 minutes, the supernatant is filtered with a serum sampler. 2 ml of the clear yellow filtrate is then adjusted to a neutral pH with 2 ml of 0.5 N sodium hydroxide and the absorbance of 440 nm wavelength light is measured with a spectrophotometer. The amount of azocasein hydrolyzed is calculated based on a standard curve of known concentrations of azocasein solution developed under identical conditions. An enzyme activity unit (“AZ U”) is defined as that amount of enzyme which hydrolyzes 1 μg of azocasein substrate/minute at 37° C. The following is an example of the stability of Me-trypsin in a disinfecting composition of the present invention as compared to analogous compositions containing trypsin or pancreatin. The enzymes were solubilized in the Example 5C composition. The compositions were stored at room temperature or 30° C. for up to 42 days. At various time points, enzyme activity was assayed using the azocasein method.

[3] = tested on: azocasein; assay: Stability of Me-trypsin versus other trypsin analogs in a Part I composition (azocasein method); assay type: physicochemical; settings: for % Activity Remaining: 45° C., 50% L-sorbose 1% borax, pH 5.79 (acetylated trypsin pH 7.54)
Protocol: Azocasein Method The following solutions are used in this assay: 1) Buffer solution: 0.05 M sodium phosphate buffer containing 0.9% sodium chloride, pH 7.6. 2) Substrate solution: 2 mg/ml azocasein in the buffer solution mentioned above. The assay is initiated by mixing 1 ml of an appropriately diluted (such that the enzyme activity is in the range of standard curve) enzyme composition in phosphate buffer with 2 ml of azocasein substrate solution (2 mg/ml). After incubation at 37° C. for 20 minutes, the mixture is removed from the incubator and 1 ml of trichloroacetic acid to (14% w/v) is added to stop the enzyme reaction. The mixture is vortexed well and allowed to stand at room temperature for 20 minutes. After centrifuging at 2500 rpm (with a Beckman GS-6R Centrifuge) for 15 minutes, the supernatant is filtered with a serum sampler. 2 ml of the clear yellow filtrate is then adjusted to a neutral pH with 2 ml of 0.5 N sodium hydroxide and the absorbance of 440 nm wavelength light is measured with a spectrophotometer. The amount of azocasein hydrolyzed is calculated based on a standard curve of known concentrations of azocasein solution developed under identical conditions. An enzyme activity unit (“AZ U”) is defined as that amount of enzyme which hydrolyzes 1 μg of azocasein substrate/minute at 37° C. […] The enzymes were solubilized in a Part I composition containing 50% (w/v) L-sorbose 1% (w/v) borax (Na2B4O7.10H2O), at pH 5.79, except the acetylated trypsin composition was at pH 7.54. The compositions were stored at 45° C. for 240 hours. At various time points, enzyme activity was assayed using the azocasein method.

| Substance | Lysozyme, Total [1] | Lysozyme, ACN/TFA Extract [1] | % Cleaning Efficacy [1] | Lysozyme, Hydrolysate [1] | % Activity Remaining ([2]; 30° C., 1 day) | % Activity Remaining ([2]; 30° C., 2 days) | % Activity Remaining ([2]; 30° C., 5 days) | % Activity Remaining ([2]; 30° C., 7 days) | % Activity Remaining ([2]; 30° C., 14 days) | % Activity Remaining ([2]; RT, 1 day) | % Activity Remaining ([2]; RT, 2 days) | % Activity Remaining ([2]; RT, 5 days) | % Activity Remaining ([2]; RT, 7 days) | % Activity Remaining ([2]; RT, 14 days) | % Activity Remaining ([2]; RT, 21 days) | % Activity Remaining ([2]; RT, 28 days) | % Activity Remaining ([2]; RT, 35 days) | % Activity Remaining ([2]; RT, 42 days) | % Activity Remaining ([3]; 0 Hr.) | % Activity Remaining ([3]; 64 Hr.) | other results |
| --- | --- | --- | --- | --- | --- | --- | --- | --- | --- | --- | --- | --- | --- | --- | --- | --- | --- | --- | --- | --- | --- |
| Trypsin [Native Trypsin, reference compound] | 317.40 μg/Lens | 83.92 μg/Lens | 73.6% | 233.45 μg/Lens | 90.8% | 78.7% | 66.7% | 62.4% | 52.4% | 102.5% | 101.5% | 98.5% | 93.6% | 85.7% | 79.6% | 74.4% | 73.8% | 61.3% | 100.0% | 62.9% | % Activity Remaining ([3]; 96 Hr.): 56.8%; % Activity Remaining ([3]; 120 Hr.): 53.1%; % Activity Remaining ([3]; 144 Hr.): 49.1%; % Activity Remaining ([3]; 240 Hr.): 41.4% |
| methyl trypsin [Me-Trypsin] | 274.35 μg/Lens | 72.90 μg/Lens | 73.4% | 201.45 μg/Lens | 99.7% | 97.8% | 96.1% | 93.5% | 91.8% | 100.9% | 100.8% | 97.9% | 99.4% | 100.0% | 98.5% | 96.6% | 96.5% | 94.0% | 100.0% | 89.4% | % Activity Remaining ([2]; 30° C., 21 days): 86.7%; % Activity Remaining ([2]; 30° C., 28 days): 82.7%; % Activity Remaining ([2]; 30° C., 35 days): 80.0%; % Activity Remaining ([2]; 30° C., 42 days): 76.3%; stability in a disinfecting composition over analogous compositions containing trypsin or pancreatin ([2]; summary of Table 2): superior stability; % Activity Remaining ([3]; 96 Hr.): 86.3%; % Activity Remaining ([3]; 120 Hr.): 84.7%; % Activity Remaining ([3]; 144 Hr.): 82.2%; % Activity Remaining ([3]; 240 Hr.): 76.1%; enzyme stability in a Part I composition over other trypsin related enzyme compositions ([3]; summary of Table 1): superior enzyme stability |
